Results taken from article PMC9133542, “Development of Novel CD47-Specific ADCs Possessing High Potency Against Non-Small Cell Lung Cancer in vitro and in vivo” (Frontiers in Oncology, 2022).

B1: 7DC2-VCMMAE (7DC2 conjugated with maleimidocaproyl-valine-citrulline-monomethyl auristatin E) (antibody, V domains shown)
VH: QVQLQQSGPELVKPGASVKMSCKASGYTFTNYFMHWVKQKPGQGLEWIGYINPYNDGTKYNEKFKGKATLTSDKSSSTAYMELSSLTSEDSAVYYCTKGGRYSMDYWGQGTTLTVSS
VL: DVVMTQTPLSLPVRLGDEVSISCRSSQTIVFTNGNTYLEWYLQKPGQSPKLLIYKVSNRFSGVPDRFSGSGSGTDFTLTISRVEAEDLGIYYCFQGSHVPYTFGGGTKLELK
notes: as the heavy chain of m1 (mouse Fab part); human IgG1 Fc fragment; as the light chain of m1; Antibody-drug conjugate of m1; drug distribution 2, 4, 6 and 8 per antibody; also called 7DC-VCMMAE; source: 7DC2 from Expi293, reduced with TCEP, conjugated with VCMMAE, purified (Amicon-30 kDa); copies: 2 + 2
B2: 7DC4-VCMMAE (7DC4 conjugated with maleimidocaproyl-valine-citrulline-monomethyl auristatin E) (antibody, V domains shown)
VH: QVQLKQSGAELVQPGASVKLSCKASGYTFTNYYMYWLRQRPGQGLEWIGEINPSNGGTDFNEKFKSKATLTVDKSSSTAFMQLSSLTSDDSAVYYCARGGFTMDYWGQGTTVTVSS
VL: DVVMTQTPLSLPVSLGDQASISCRSSQSLVHSNGNTYLHWYLQKPGQSPKLLIYKVSNRFSGVPDRFSGSGSGTDFTLKISRVEAEDLGVYFCSQSTHVPLTFGAGTKLELK
notes: as the heavy chain of m2 (mouse Fab part); human IgG1 Fc fragment; as the light chain of m2; Antibody-drug conjugate of m2; drug distribution 2, 4, 6 and 8 per antibody; also called 7DC4-CVMMAE; 7DC4-MMAE; source: 7DC4 from Expi293, reduced with TCEP, conjugated with VCMMAE, purified (Amicon-30 kDa); copies: 2 + 2
B3: 7DC2 monoclonal antibody (chimeric anti-human CD47, mouse Fab plus human IgG1 Fc) (antibody, V domains shown)
VH: QVQLQQSGPELVKPGASVKMSCKASGYTFTNYFMHWVKQKPGQGLEWIGYINPYNDGTKYNEKFKGKATLTSDKSSSTAYMELSSLTSEDSAVYYCTKGGRYSMDYWGQGTTLTVSS
VL: DVVMTQTPLSLPVRLGDEVSISCRSSQTIVFTNGNTYLEWYLQKPGQSPKLLIYKVSNRFSGVPDRFSGSGSGTDFTLTISRVEAEDLGIYYCFQGSHVPYTFGGGTKLELK
notes: human IgG1 Fc fragment; mouse light chain of 7DC2; Chimeric IgG1; also called 7DC2 mAb; 7CD2; source: Expi293, transfected with light and heavy chain plasmids, purified; copies: 2 + 2
B4: 7DC4 monoclonal antibody (chimeric anti-human CD47, mouse Fab plus human IgG1 Fc) (antibody, V domains shown)
VH: QVQLKQSGAELVQPGASVKLSCKASGYTFTNYYMYWLRQRPGQGLEWIGEINPSNGGTDFNEKFKSKATLTVDKSSSTAFMQLSSLTSDDSAVYYCARGGFTMDYWGQGTTVTVSS
VL: DVVMTQTPLSLPVSLGDQASISCRSSQSLVHSNGNTYLHWYLQKPGQSPKLLIYKVSNRFSGVPDRFSGSGSGTDFTLKISRVEAEDLGVYFCSQSTHVPLTFGAGTKLELK
notes: human IgG1 Fc fragment; mouse light chain of 7DC4; Chimeric IgG1; also called 7DC4 mAb; 7CD4; source: Expi293, transfected with light and heavy chain plasmids, purified; copies: 2 + 2

What was measured:
[1] = target: CD47 on the cell membrane of human lung cancer cell lines A549, SPC-A-1 and 95D (Homo sapiens, UniProt Q08722); test: cell-based or functional assay
[2] = target: T1, CD47/ECD (Gln 19 - Pro 139, His Tag, ACROBiosystems) (Homo sapiens, UniProt Q08722-3); test: ELISA; CD47/ECD coated (0.2 ug per well, PBS pH 7.4, 16 h at 4°C), blocked with 2% BSA in PBST; IgG titrated at 11 two-fold dilutions in PBST with 0.5% BSA, 1 h; detected with HRP/anti-human IgG conjugate; EC50 by ED50 Plus v1.0; n = 3; conditions: both partners purified
T1 construct: also called CD47 antigen; CD47/ECD antigen; source: bought: ACROBiosystems (expressed from human 293 cells, HEK293)
T1 sequence (Q08722 19-139): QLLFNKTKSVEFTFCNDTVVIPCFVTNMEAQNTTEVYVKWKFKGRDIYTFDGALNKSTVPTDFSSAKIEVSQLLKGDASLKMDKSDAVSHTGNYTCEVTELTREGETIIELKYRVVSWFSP

Chain of CD47 on the cell membrane of human lung cancer cell lines A549, SPC-A-1 and 95D (Q08722 19-323): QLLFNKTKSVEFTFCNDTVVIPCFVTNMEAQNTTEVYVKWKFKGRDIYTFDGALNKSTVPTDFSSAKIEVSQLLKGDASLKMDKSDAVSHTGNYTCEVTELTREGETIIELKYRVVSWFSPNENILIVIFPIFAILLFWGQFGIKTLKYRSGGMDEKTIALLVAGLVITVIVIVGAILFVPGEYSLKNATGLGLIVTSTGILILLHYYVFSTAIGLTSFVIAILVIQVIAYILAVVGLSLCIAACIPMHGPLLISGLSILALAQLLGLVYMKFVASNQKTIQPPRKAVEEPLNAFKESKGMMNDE

Binder | IC50 of cytotoxicity on 95D cells (relative cell viability, WST-1; 0.064-40 nM) [1] [nM] | EC50 [2] [nM]
B1 | ~40 | 0.15
B2 | ~40 | 0.13
B3 |  | 0.15
B4 |  | 0.13
